From a protein production outcome set (Wang et al. 2014)

Assay: label from the status in PepcDB records
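Note: failed if final PepcDB status was selected cloned or expressed and not failed if soluble or beyond.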

Row | Sequence | protein production
1 | MPQPRRSTGSKLTYRPVGYVNAMSEQDEVPSEDRRKYEFRKVIEELKDYEGSGTQLVTIYIPPDKQISDVVAHVTQEHSEASNIKSKQTRTNVQDALTSIKDRLRYYDTFPPDNGMVVFSGAVDSGGGRTDMVTEVLESPPQPIESFRYHCDSAFLTEPLAEMLGDKGLYGLIVLDRRESNVGWLKGKRVQPVKSAESLVPGKQRKGGQSAQRFARLRLEAIDNFYQEVAGMADDLFVPKRHEIDGILVGGPSPTKDEFLDGDYLHHELQDKVLGKFDVSYTDESGLSDLVDAGQAALAEADLMDDKSDMEEFFEELNGGKLATYGFEQTRRNLIMGSVDRLLVSEDLREDVVIYECPNDHEEYETIDRRNTSPEHTCSDCGEEATEVDREDAIDHLMSIADQRGTETHFISTDFEKGEQLLTAFGGYAGILRYSTGV | failed
2 | MGHHHHHHSHMTLRCLEPSGNGGEGTRSQWGTAGSAEEPSPQAARLAKALRELGQTGWYWGSMTVNEAKEKLKEAPEGTFLIRDSSHSDYLLTISVKTSAGPTNLRIEYQDGKFRLDSIICVKSKLKQFDSVVHLIDYYVQMCKDKRTGPEAPRNGTVHLYLTKPLYTSAPSLQHLCRLTINKCTGAIWGLPLPTRLKDYLEEYKFQV | failed
3 | MFNFFKNKQTEPAAPPPPKDPTPRIEFFNGISEELSNVSLQRNPKTGVKSVSMTFAQLNALDRFQSFTAGSNGIVRLIDEEGDIAVTPSSCRIVFGGEEGDELRGVICRFEIENDDHWERFMRFMHRYADEHGFAYGESAETSNEPSSLASETDSEA | failed
4 | MDLWDRFCVNLHTRKITLEDESQKRSMDLRLLHGVAYGHSWFGKWGYRFCSGSFGVEEHHYHRAIAFLTSISLVDDITANFRENKANLNIGDIVRCYRDMSEIQLTTLQDLLRFMLTIKSRAPPIRIPIGKIEAPSVVLPSMKAYGTRACPQVKQCPKDKEKSVKCRKFALPLPLQACFHFPFRSSMTLLSGSFRS | not failed
5 | YGDINLNLLKDKGYTTLQDEAIKIFNSLQQLESMSDPIPIIQGILQTGHDLRPLRDELYCQLIKQTNKVPHPGSVGNLYSWQILTCLSCTFLPSRGILKYLKFHLKRIREQFPGTEMEKYALFTYESLKKTKCREFVPSRDEIEALIHRQEMTSTVYCHGGGSCKITINSHTTAGEVVEKLIRGLAMEDSRNMFALFEYNGHVDKAIESRTVVADVLAKFEKLAATSEVGDLPWKFYFKLYCFLDTDNVPKDSVEFAFMFEQAHEAVIHGHHPAPEENLQVLAALRLQYLQGDYTLHAAIPPLEEVYSLQRLKARISQSTKTFTPCERLEKRRTSFLEGTLRRSFRTGSVVRQKVEEEQMLDMWIKEEVSSARASIIDKWRKFQGMNQEQAMAKYMALIKEWPGYGSTLFDVECKEGGFPQELWLGVSADAVSVYKRGEGRPLEVFQYEHILSFGAPLANTYKIVVDERELLFETSEVVDVAKLMKAYISMIVKKRYSTTRSASSQGSSR | failed
6 | PFCAMENQVLVIRIKIPNSGAVDWTVHSGPQLLFRDVLDVIGQVLPEATTTAFEYEDEDGDRITVRSDEEMKAMLSYYYSTVMEQQVNGQLIEPLQIFPR | not failed
7 | MFKAPFSFDGRIRRIEYFLSGIIGGIVFGVAYSLGLATLFLGAAAGSAGGSLFGILIGIVAGIASIWFSLAQGVKRLHDLNKSGWLILICCVPIIGWVFSLYMLFADGTVGPNQYGEDPKNRMPYQPQPTSVNVTVNVSRETPAEAPAEEEKTEKAE | failed
8 | MVAGFTVHSGPHHVPHRDMTHHSRPPGHAPRVTILMPVYNGEKYLAAAMESILDQTFRDFILLIIDDGSSDSSLAIARSFGDPRVQVERNPKNLGLVKTLNRGLDLVQTEFVARMDCDDIALPDRLEKQIAFLDENPDIGMCGTAYELFHESLRQTIRPPCRHEEIVYGLLDDNVFLHSSVIVRMEVLNRHGLRYREDYRLAEDYELWARLARYTHIGNLPQVLVRYRSHPENVSNTNKGEQIATRDRVRLEHLESFGLAPAADQKTLHIDLFSLAFQGSPDQLADARRWLEALARAVSTRCGLPLGRLHRDFALLWYSACGRSAHHGLTVLFSYLKSAMAWKGPKSYILKLLFRCLMRDPIPAVTKLEHHHHHH | not failed
9 | MRDFLVRYFPTFMLTVLLGCFSASLLLSLAGTTYWRAMAPPQRDEYLLFGLLVLIPLLVLGNLLIVRGISRAVWLVAGYFVACLLGVVPMFQYHPHQGVYLFGVLLPLLGLLLLNSKRHREMRERLLQIRQQRQRFKQQRKRG | failed
10 | MSTSPYEKLSEQEKKQMIKEIQEQAYEALLYAFGVEKKMISDDVKNLLNIEQESAEEKRKMAYEATLLAATFSHSLAKDRDGVLATLKNQLHITDDFHRECQNRVRNNILVVQLTGEASGSNYVGETGWTTLRRISNTIFRF | failed
11 | MVEEVQKHSVHTLVFRSLKRTHDMFVADNGKPVPLDEESHKRKMAIKLRNEYGPVLHMPTSKENLKEKGPQNAPDSYPHKQYPANQGQDVEYLVTGTHPYPPGPGVALTADTKIQRMPSESAAQSLAVALPSQTRVDANRTAPAGSEYRHPGASDRSQPTAMNSMIMETSNTKNSALMAKKAPTMPKPQWHPPWKLYRVISGHLGWVRCIAVEPGNQWFVTGSADRTIKIWDLASGKLKLSLTGHISTVRGVIVSTRSPYLFSCGEDKQVKCWDLEYNKVIRHYHGHLSAVYGLDLHPTIDVLVTCSRDSTARIWDVRTKASVHTLSGHTNAVATVRCQAAEPQIITGSHDTTIRLWDLVAGKTRVTLTNHKKSVRAVVLHPLHYTFASGSPDNIKQWKFPDGGFIQNLSGHNAIINTLAVNTDGVLVSGADNGTMHLWDWRTGYNFQRVHAAVQPGSLDSESGIFACAFDRSESRLLTAEADKTIKVYREDETATEETHPVSWKPEIIKRKRF | failed
12 | MIDTMQYGKNDSLRDEIKAYWSGRAATFDLSPGHEIFSEDERAAWHALILKHLGRGEGRKALDLASGTGVISHLMDDLGFQVTGMDWSETMLGLAREKAKSRGRNIRFFVGDAENTMEPDESADVIITRHLVWTLVDPQASFAEWFRVLKPGGKLLIVDGDFVNTGWRERLVKKLAVSLESIGLVKADQPHKPADPENTFNSILSRVYFSKGARAGDVATMLGATGFEPVSVDQELRAIHRAQAKNFSLLKGILRGLQHRYAVCAVKPDTSVKG | failed
13 | SADQIRQSVRHSLKDILMKRLTDSNLKVPEEKAAKVATKIEKELFSFFRDTDAKYKNKYRSLMFNLKDPKNNILFKKVLKGEVTPDHLIRMSPEELASKELAAWRRR | not failed
14 | HLGIPPSGALDQYALRAANLLVGNAPTAAVLECALLGPQLEFQRDALVAVCGARMTPRLEGAEMPLDTSFRVRAGQVLGFDFIRAGARGYLAIDGGIAVPEVLGSRSTYGLGAIGGLQGRRLAEGDLLPLGPASPSAVEGLALPRSLQVEVGGEVSLRVVPGLYVHRLTPDAVERFFAETWTVGSEADRTGYRFKGGTALRFEPREQPFGAGSDPSNIVDACYPIGSIQVPGGLEPIVLHRDAVSGGGYATLGTVISPDLNRLAQMQPNQKGRFVAVSLEEGLEARRRYNWQ | failed
15 | MKFEGIYTPAITPLSADGSIDTQAFAEVLEFLVESKVHGIVIGGSTGEYYAHTAEERLALAAHASEVIAGRLPLVVGTGAIRTEDSLAYAEAARAIGADAILVGSPPYALPTSREIAEHVLAVDRAAGLPIMLYNYPARMGVEMDEAFFAAVAGCRNIVAIKESSGSTAQLHRLACRHPRIALSCGWDDQALEFFAWGARSWVCAGSNFIPGEHLALYQACVVENDFAKGRRIMAAMMPLMDFLESGHFVQSIKHGCELAGLRAGGVRAPLKALDEAGKAALAEIVARLKGEVAR | failed
16 | MEVCSTVTTKKLSSLAKLILFTIQKVSDASRHKLLTTLDPHLLAKRGKILRKSLNEAVSTSHSRITCRPSDHQDVRSSFISPVPLQLEYEFSCSSTPPRRSYATTVSKGRRSNGSHNRPLINKRQRQAYIRYNTLPKVRDSIWDRHVAAAVFPDVASSTGTMESCHVDRAAEEFIQSFYRQLRLQKWMMAQEV | failed
17 | MSRQPLSREDTAILVPALNEALRIREVVTDALTYCSHVIVIDDGSDDGTAECIAGMPVTLIRHPQRMGKGAALRSGFAQAQRLGMRAVMTMDGDGQHKAADFPRLLAAANRHPGCVIIGARMRKRATQPTIRRIGNDFGDWGIAWGCGFRLIDSQSGQRLYPASVFTLPNVPGEGFVFEAQLLISAARQAGARVVAVPIETRYAGTSPGTFRKSHFRLVRDLWNITSHVVKQVWAYGHVWREYRRVRANPVIVDDPDGEFATVPAVTKSNHSSLEHHHHHH | failed
18 | MDLLEYQVKEWFGEIGIPVLPSQRIDHPTDLKRLKIRYPIVLKSQVHAGEREKVGGVRMVETTIDAIAAAQTIFNLSIWGELPEVLLAESKYNSHQEFYLAVVLDTAVCRPVLLGSTEADIDLELADQKMQYVVVEQEFSPFYARRLALKMGLQGTLMQSVSTVLEKMYQLFVQKDLDLVEINPLGVNLAGEVMALNGKVGVNERAIGRHPEIAAMAAKIIPRHYDKSFSNGRDWNNLEKQRRIGILGNGTGSILATYDLVASGGGKPGICLNLRHAAITDLSPTKFGDRLTKGLNTLAADKNTQVILINLLGSIPQPEEAAQAIAQFIQQNKGEYPPSIAKSNGKNLSQHQSPQLVIRLAGSELNAAKEVLAALQTHEEGLILVEDLDEAVATAVRLTKSHAYKKVS | failed
19 | MPTIFQIPTFIQILEFIGTFAFAISGIRLASAKQFDWFGAYVAGVAVAIGGGTIRDVLLDVTPFWMTNPIYLICSALALLWVIFFRKHLIHMHNTFFIFDSIGLALFTVVGISKTIDLGYAFWVAIIMGTMTGAAGGVIRDVFINEIPLIFRKEIYAMACVIGGVIYWGLDRFGVDAALTQVISGCCIFVVRALAVKYQICLPILKGE | failed
20 | MASVKLPWDLEEEILSRLPPRSLVRFRTVCKHWNGLFSDKRFVKKHLVRARPQFIFLTESKKMYSIEIDLGGTIEVREVPYDFHCQPMKKNFTTIMACDGLLFRDFWKQGVAVWNPWLRQVGWIEYEDKGFRFCGVGYDSCKPDKCYKILGYFNCTRRLSDSLQEGYYQAAIYECASQAFKFIDTPNPFNLWPNKDPLSVNGNLYWLAHNHPETLEYFIETFDFSMEIFKPFCLLPCRKDFGSNELVLAVFKEDRFSLLKQCFETTKIEIWVTKMKIDREEEVVWIKFMTLPTTNLPNLDDTYCCSSYFIFDKTIIMCCGDYKTGATCIYMVRGDMFKKIQINSGIFQFSYCVYLPNLISVPFESHQV | failed
21 | MGHHHHHHSHPQLLHFVDQYREQLIARVTSVEVVLDKLHGQVLSQEQYERVLAENTRPSQMRKLFSLSQSWDRKCKDGLYQALKETHPHLIMELWEKGSKKGLLPLSS | not failed
22 | MYDCSHGAGSSQSPAAEPGPTPRRRHTIHRLAHNDPVNDLDFLLTPEGRALLDEVRDTDPVRELAVATRLRRTHPAELVSAALGQARLRQRAVAKFGAEDAGRMFFTPNGVEQSTRASVAAYRAGRFAALGVASVADLCCGIGGDAIALARAGIRVLAVDRDPVTAAAARANADALGLAGLIEVREADVTEVDTEAYDAVFVDPARRGGRGRIFDPEAYSPPLSWAVRAARTASRAAALKVAPGIPHEAVPEDAEAEWISDGGDVKEAVLWFGAGAAPGAVRATLLPGPRTLPGTGLPDPEVRTPGRYLYEPDGAVIRAHLVAEVAAQVGGGLLDATIAYVTADELLPTPYATAYEITDRMPFNVKKLKALLRERGVGTLTVKKRGSAVEPEELRRKVKPQGPNSATVFLTRVAGAPTMLVGHPAR | failed
23 | MFRALKDKKRFIRNLILTFIIFLFIFLLYQFEAFRDIIFIVLVSGIFAYILKPLYRFLCERTKINKNFLAMAIVLSVIFLILFFLTVLIPSMFKEGESFDGLINGIEFFINDLIMKMKFMELGIFDVIEAQVTEKLNILLVSFATSIINNLISFSENILAFAVIPVLAYYFLAYGDLLSNKFLYCCPMEKRALLKNLGRDVDKVLGKYILGQLLLSLLVGVMTFIGMLILGIKFPLLLAFLNALLNIIPYFGAVLGAIPAIVVALVEGPNKILWVILTFLIIQQIEGNLIAPKITAESIDMHPILIIILLLIGEQIGGLLGMVFIVPIAVVIKVLFDDWDYYMFL | failed
